Laboratory results from US20200291066A1.
Where two headings read alike, the source gives them in different places. Ends that are not written are not given here.

Legend:
[1] = molecular target: T1, human IL-2Rβ (CD122 protein, Fc Tag) (27-239) (human), P14784; test: pH-dependent ELISA (Examples 9-12)
T1 chain: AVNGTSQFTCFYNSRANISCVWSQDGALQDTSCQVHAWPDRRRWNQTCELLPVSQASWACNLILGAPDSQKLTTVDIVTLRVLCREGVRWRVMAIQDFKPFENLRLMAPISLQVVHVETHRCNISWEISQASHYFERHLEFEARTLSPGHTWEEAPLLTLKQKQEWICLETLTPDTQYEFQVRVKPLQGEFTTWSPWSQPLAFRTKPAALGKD

[2] = molecular target: T1, human IL-2Rβ (CD122 protein, Fc Tag) …; test: pH-dependent ELISA (Examples 9-12)

decrease in binding at pH 7.5 compared to pH 6.0 [1]: > 50%
decrease in binding at pH 7.5 compared to pH 6.0 [2]: > 15%
B1: SEQ ID NO 489 (peptide)
peptide: PGVQDCXIAHXGELCEFVWN
modifications: not fully specified; X: residue not identified in the source; ends and bridges not checked
